Laboratory results from the supplement of paper PMC9233669.
Variants at the floor of the assay were thinned out.

Tests used:
[1] = system: biotinyl-Trp-oxazolone; test: self-aminoacylation, catalytic enhancement (BWO) (fold over background); higher = more active; k-Seq, kA / k0A0; sequences stand for … in GGGAAUGGAUCCACAUCUACGAAUUC…UUCACUGCAGACUUGACGAAGCUG
Procedure, shortened: (§1)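 Working in 50 μL HEPES/NaCl/KCl/MgCl2/CaCl2 buffer with 5% acetonitrile at pH 6.9–7.0, mutagenized RNA pools (0.43 μM; 21-nt variable region) were reacted with 2–1250 μM of each biotinyl-aminoacyl-oxazolone for 90 minutes at room temperature. Streptavidin capture followed, with quantification by triplicate qPCR and Illumina sequencing. Catalytic enhancement is reported as median kA over the uncatalyzed rate, the low-activity peak of a bimodal Gaussian fit to the data.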

[2] = system: biotinyl-Ile-oxazolone; test: self-aminoacylation, catalytic enhancement (BIO) (fold over background); higher = more active; k-Seq, kA / k0A0; sequences stand for … in GGGAAUGGAUCCACAUCUACGAAUUC…UUCACUGCAGACUUGACGAAGCUG
Procedure, shortened: as §1

[3] = system: biotinyl-Phe-oxazolone; test: self-aminoacylation, catalytic enhancement (BFO) (fold over background); higher = more active; k-Seq, kA / k0A0; sequences stand for … in GGGAAUGGAUCCACAUCUACGAAUUC…UUCACUGCAGACUUGACGAAGCUG
Procedure, shortened: as §1

[4] = system: biotinyl-Met-oxazolone; test: self-aminoacylation, catalytic enhancement (BMO) (fold over background); higher = more active; k-Seq, kA / k0A0; sequences stand for … in GGGAAUGGAUCCACAUCUACGAAUUC…UUCACUGCAGACUUGACGAAGCUG
Procedure, shortened: as §1

[5] = system: biotinyl-Val-oxazolone; test: self-aminoacylation, catalytic enhancement (BVO) (fold over background); higher = more active; k-Seq, kA / k0A0; sequences stand for … in GGGAAUGGAUCCACAUCUACGAAUUC…UUCACUGCAGACUUGACGAAGCUG
Procedure, shortened: as §1

[6] = system: biotinyl-Leu-oxazolone; test: self-aminoacylation, catalytic enhancement (BLO) (fold over background); higher = more active; k-Seq, kA / k0A0; sequences stand for … in GGGAAUGGAUCCACAUCUACGAAUUC…UUCACUGCAGACUUGACGAAGCUG
Procedure, shortened: as §1

Row | Sequence | self-aminoacylation [1] | self-aminoacylation [2] | self-aminoacylation [3] | self-aminoacylation [4] | self-aminoacylation [5] | self-aminoacylation [6]
1 | AAGUUUGCUAUUAGUUGCAAG [Fam3.1 aminoacylation ribozyme variant] | 1.01 | 0.855 | 1.46 | 0.859 | 0.874 | 0.96
2 | AUUUUUGCUAAUAGUCGCAAG [Fam3.1 aminoacylation ribozyme variant] | 1.02 | 1.37 | 1.71 | 1.07 | 1.02 | 0.994
3 | CCACACUUCAAGCAAUCGCAC [Fam1B.1 aminoacylation ribozyme variant] | 0.672 | 0.76 | 0.785 | 0.814 | 0.889 | 0.465
4 | CCAGACUUCAGGCAAUCGGUC [Fam1B.1 aminoacylation ribozyme variant] | 1.83 | 1.45 | 1.79 | 1.36 | 1.64 | 1.57
5 | ACACACUUCAAGCAAUCGGUU [Fam1B.1 aminoacylation ribozyme variant] | 4.24 | 2.21 | 4.53 | 2.44 | 2.05 | 2.26
6 | GAGUUUGCUAAUAGUCACAAG [Fam3.1 aminoacylation ribozyme variant] | 4.25 | 1.84 | 11.7 | 1.62 | 1.48 | 1.36
7 | AUUGACCUAGGUCAUCUGGUG [Fam2.2 aminoacylation ribozyme variant] | 2.27 | 1.83 | 8.46 | 1.9 | 1.7 | 2.42
8 | AUUACGCUGGUCUUCGAGUGA [Fam2.1 aminoacylation ribozyme variant] | 5.95 | 3.35 | 12.9 | 4.27 | 3.32 | 5.46
9 | AUUACCCUGGUCAACUAGUGA [Fam2.1 aminoacylation ribozyme variant] | 9.81 | 3.93 | 24.9 | 8.64 | 4.39 | 6.83
10 | CCACACAUCUAGCAAUCGGUC [Fam1B.1 aminoacylation ribozyme variant] | 0.615 | 0.894 | 0.911 | 0.797 | 0.93 | 0.712
11 | AAGUUUGCUAAUAGUGGCAAU [Fam3.1 aminoacylation ribozyme variant] | 0.811 | 1.08 | 1.43 | 1.16 | 1.16 | 0.961
12 | AUUCGCCUAGGUCACCGGGUG [Fam2.2 aminoacylation ribozyme variant] | 5.18 | 4.4 | 49 | 5.69 | 4.27 | 8.04
13 | AUUCAUCUAGGUCAUCGGGUU [Fam2.2 aminoacylation ribozyme variant] | 2.36 | 2.22 | 3.41 | 2.46 | 2.03 | 2.81
14 | CUACUGCAAACAAUCCGUCUG [Fam1A.1 aminoacylation ribozyme variant] | 0.876 | 0.953 | 1.27 | 0.806 | 0.801 | 0.817
15 | CCACACUUAAGGCAAUCGGUC [Fam1B.1 aminoacylation ribozyme variant] | 1.25 | 1.15 | 0.764 | 0.983 | 0.981 | 1.03
16 | AUUCACCGAGGUCAUCUGGUG [Fam2.2 aminoacylation ribozyme variant] | 3.61 | 2.39 | 34.6 | 4.31 | 2.69 | 5.72
17 | AGUACUCUGGUCAUCGAGUGA [Fam2.1 aminoacylation ribozyme variant] | 3.97 | 3.14 | 11.4 | 4.15 | 3.01 | 3.94
18 | AGUCACCAAGGUCAUCGGGUG [Fam2.2 aminoacylation ribozyme variant] | 7.87 | 4.38 | 51.2 | 6.59 | 4.7 | 7.67
19 | GUUACCCUGGUCAUCUAGUGA [Fam2.1 aminoacylation ribozyme variant] | 13.4 | 5.9 | 78.6 | 12 | 6.05 | 11.7
20 | CCACACUCCACGCAAUCGGUC [Fam1B.1 aminoacylation ribozyme variant] | 1.18 | 1.51 | 0.759 | 1 | 1.62 | 1.2
21 | CUUACCCUGGUCAUAGAGUGA [Fam2.1 aminoacylation ribozyme variant] | 7.46 | 2.86 | 24.2 | 6.37 | 2.83 | 5.85
22 | AUUACCCUGUUCAUCGGGUGA [Fam2.1 aminoacylation ribozyme variant] | 12 | 4.92 | 64.2 | 9.44 | 5.19 | 9.74
23 | AUUACCCUGGUAAUCAAGUGA [Fam2.1 aminoacylation ribozyme variant] | 3.48 | 1.71 | 16.1 | 3.27 | 1.73 | 3.14
24 | AUUACCCUGGUCAUCCAAUGA [Fam2.1 aminoacylation ribozyme variant] | 0.429 | 0.938 | 1.66 | 1.2 | 0.942 | 1.47
25 | AUUCUCCUAGGUCAUCCGGUG [Fam2.2 aminoacylation ribozyme variant] | 9.8 | 6.71 | 65.5 | 9.16 | 6.42 | 12.2
26 | CUACUUCAAACAUUCGGUCUA [Fam1A.1 aminoacylation ribozyme variant] | 0.89 | 1.03 | 0.783 | 0.882 | 1.02 | 0.766

Row | Sequence | self-aminoacylation [1] | self-aminoacylation [2] | self-aminoacylation [3] | self-aminoacylation [4] | self-aminoacylation [5] | self-aminoacylation [6]
27 | AUUCUCCUAGGCCAUCGGGUG [Fam2.2 aminoacylation ribozyme variant] | 5.32 | 3.49 | 33 | 5.37 | 3.74 | 7
28 | CCACACUUCAAGGAAUUGGUC [Fam1B.1 aminoacylation ribozyme variant] | 0.823 | 0.901 | 0.734 | 0.755 | 0.726 | 1.03
29 | AAGUAUGCUAAUAGUCGAAAG [Fam3.1 aminoacylation ribozyme variant] | 4.62 | 1.48 | 15.7 | 1.7 | 1.21 | 1.31
30 | CAACUUCAAACAAUCGGUUUG [Fam1A.1 aminoacylation ribozyme variant] | 44 | 1.51 | 87.8 | 1.71 | 1.62 | 2.6
31 | CUACUUGAAACAAUGGGUCUG [Fam1A.1 aminoacylation ribozyme variant] | 1.61 | 1.3 | 0.694 | 1.65 | 1.13 | 1.13
32 | GCACCCUUCAAGCAAUCGGUC [Fam1B.1 aminoacylation ribozyme variant] | 4.63 | 1.32 | 4.04 | 1.22 | 1.47 | 1.45
33 | UAGUAUGCUAAUAGUCGCAAG [Fam3.1 aminoacylation ribozyme variant] | 1.68 | 1.62 | 2 | 1.28 | 1.13 | 1.57
34 | CCACAUUUCUAGCAAUCGGUC [Fam1B.1 aminoacylation ribozyme variant] | 1.22 | 1.83 | 1.49 | 1.35 | 1.76 | 1.4
35 | CGACACUUCAAGCAAUCGGCC [Fam1B.1 aminoacylation ribozyme variant] | 3.53 | 3.11 | 3.39 | 1.79 | 3.32 | 2.84
36 | AUUCACCCAAGUCAUCGGGUG [Fam2.2 aminoacylation ribozyme variant] | 10.1 | 5.59 | 92.9 | 11 | 5.86 | 14.8
37 | AAGUCUGCUAAUAGACGCAAG [Fam3.1 aminoacylation ribozyme variant] | 0.653 | 0.692 | 1.01 | 0.669 | 0.715 | 0.771
38 | AUUAGCCUGGUCAUCGAAUGA [Fam2.1 aminoacylation ribozyme variant] | 1.27 | 1.36 | 1.23 | 1.43 | 1.39 | 1.48
39 | CCACACAUCAAGCACUCGGUC [Fam1B.1 aminoacylation ribozyme variant] | 0.94 | 0.935 | 0.805 | 1.02 | 1.18 | 0.724
40 | AUUACCCUGUUCAUCCAGUGA [Fam2.1 aminoacylation ribozyme variant] | 8.43 | 3.76 | 23 | 5.95 | 3.52 | 5.85
41 | AUUAUCCUGGCCAUCGAGUGA [Fam2.1 aminoacylation ribozyme variant] | 2.77 | 1.92 | 13.8 | 2.99 | 1.69 | 2.98
42 | AUUCUCCUAUGUCAUCGGGUG [Fam2.2 aminoacylation ribozyme variant] | 8.54 | 5.5 | 65.9 | 9.01 | 5.62 | 11.6
43 | CUUCACCUAGGUAAUCGGGUG [Fam2.2 aminoacylation ribozyme variant] | 2.7 | 1.59 | 1.56 | 2.65 | 1.65 | 2.68
44 | CCUCACUUCAGGCAAUCGGUC [Fam1B.1 aminoacylation ribozyme variant] | 0.952 | 0.856 | 1.59 | 0.951 | 0.932 | 0.947
45 | AUUACCCGGGGCAUCGAGUGA [Fam2.1 aminoacylation ribozyme variant] | 11.5 | 5.21 | 62.9 | 8.31 | 4.54 | 10.2
46 | AUUGCCCUGGUCAUCGAGUGG [Fam2.1 aminoacylation ribozyme variant] | 29.8 | 9.44 | 197 | 30.9 | 10.9 | 29.4
47 | AUUCAACUAGGUCAUCGGAUG [Fam2.2 aminoacylation ribozyme variant] | 0.549 | 0.675 | 0.801 | 0.66 | 0.708 | 0.772
48 | AAGUGUGCCAAUAGUCGCAAG [Fam3.1 aminoacylation ribozyme variant] | 1.66 | 2.38 | 2.66 | 1.97 | 1.61 | 1.78
49 | AGUCACCUAGGUCAUCGGGUC [Fam2.2 aminoacylation ribozyme variant] | 1.69 | 1.46 | 4.41 | 2.13 | 1.7 | 1.82
50 | CAGUUUGCUAAUAGCCGCAAG [Fam3.1 aminoacylation ribozyme variant] | 1.07 | 1.86 | 1.44 | 1.26 | 1.46 | 1.69
51 | CUACUUCAAACAAUGCGUCUG [Fam1A.1 aminoacylation ribozyme variant] | 0.738 | 1.17 | 0.887 | 1.09 | 0.887 | 0.975
